From patent publication US20240190989A1 (BEIGENE SWITZERLAND, published 2024)
Like-named read-outs stand apart in the source and are kept apart here.

T1: full-length human CEA on cells (MKN45, LOVO, L929/huCEA, CT26/CEA, CT26-OS8-CEA) (human, UniProt P06731 35-685)
T1 construct: also called CEACAM5; native CEA
T1 sequence: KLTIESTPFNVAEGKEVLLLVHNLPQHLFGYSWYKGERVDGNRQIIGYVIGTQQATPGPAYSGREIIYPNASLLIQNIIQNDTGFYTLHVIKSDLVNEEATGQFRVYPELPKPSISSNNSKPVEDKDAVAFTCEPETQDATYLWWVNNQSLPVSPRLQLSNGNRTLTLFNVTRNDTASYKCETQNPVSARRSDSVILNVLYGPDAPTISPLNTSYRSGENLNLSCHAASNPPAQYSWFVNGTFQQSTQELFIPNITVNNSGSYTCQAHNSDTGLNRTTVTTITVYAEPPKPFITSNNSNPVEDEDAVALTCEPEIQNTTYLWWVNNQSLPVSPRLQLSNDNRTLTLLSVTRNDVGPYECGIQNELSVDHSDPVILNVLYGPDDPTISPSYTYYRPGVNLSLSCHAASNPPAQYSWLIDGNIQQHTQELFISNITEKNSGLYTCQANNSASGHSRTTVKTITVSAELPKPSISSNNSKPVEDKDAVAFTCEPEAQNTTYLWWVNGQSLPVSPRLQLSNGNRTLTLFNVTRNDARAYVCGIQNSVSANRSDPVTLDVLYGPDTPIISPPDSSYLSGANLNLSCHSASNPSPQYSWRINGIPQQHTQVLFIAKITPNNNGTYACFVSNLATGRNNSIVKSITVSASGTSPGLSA


Key:
[1] = target: T2, full-length human CD137 on cells (Hut78/huCD137, HEK293 transfectants, JK-NFKB-CD137) (human, UniProt Q07011 24-255); experiment: flow cytometry on Hut78/huCD137 cells
T2 construct: also called native CD137; TNFRSF9
T2 sequence (Q07011 24-255 limits assumed): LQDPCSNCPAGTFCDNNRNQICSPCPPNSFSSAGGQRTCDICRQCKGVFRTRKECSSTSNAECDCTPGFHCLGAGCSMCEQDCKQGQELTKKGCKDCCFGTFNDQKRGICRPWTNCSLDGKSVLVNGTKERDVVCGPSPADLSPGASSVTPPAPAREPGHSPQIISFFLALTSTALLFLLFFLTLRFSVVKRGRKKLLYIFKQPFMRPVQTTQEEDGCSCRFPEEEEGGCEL

[2] = target: T3, human CD137 ECD-mIgG2a (human); experiment: SPR, human CD137 ECD-mIgG2a
T3 construct: ECD 24-183 of huCD137 fused to mouse IgG2a Fc; also called huCD137-mIgG2a; huCD137
T3 sequence (chain, as listed by the source limits assumed): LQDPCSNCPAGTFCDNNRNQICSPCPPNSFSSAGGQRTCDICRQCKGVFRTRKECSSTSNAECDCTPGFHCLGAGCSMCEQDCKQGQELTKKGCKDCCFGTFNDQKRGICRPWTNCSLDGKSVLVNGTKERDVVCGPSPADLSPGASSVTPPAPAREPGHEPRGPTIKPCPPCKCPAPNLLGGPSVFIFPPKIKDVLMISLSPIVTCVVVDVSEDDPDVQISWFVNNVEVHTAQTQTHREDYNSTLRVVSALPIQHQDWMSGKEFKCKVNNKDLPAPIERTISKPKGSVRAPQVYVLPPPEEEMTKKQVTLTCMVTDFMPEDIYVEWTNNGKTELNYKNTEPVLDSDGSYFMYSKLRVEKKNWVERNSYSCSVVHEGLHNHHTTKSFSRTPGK

[3] = target: T1, full-length human CEA on cells (MKN45, …); experiment: flow cytometry on CT26/CEA cells
[4] = target: T3, human CD137 ECD-mIgG2a; experiment: SPR, Fc-fusion VH captured
Description: Characterization of anti-huCD137 VH domain antibodies were made by SPR assays using BIAcore™ T-200 (GE Life Sciences). Briefly, anti-human IgG (Fc) antibody was immobilized on an activated CM5 biosensor chip (Cat.: BR100839, GE Life Sciences). Anti-huCD137 domain antibodies were flowed over the chip surface and captured by anti-human IgG (Fc) antibody. […] The equilibrium dissociation constant (KD) was calculated as the ratio koff/kₒₙ.
Affinity comparison on CD137 affinity matured variants was made by SPR assays using BIAcore™ T-200 (GE Life Sciences) and flow cytometry as described.

[5] = target: T2, full-length human CD137 on cells …; experiment: flow cytometry on Hut78/huCD137 cells; remark: listed apart in the source
[6] = target: T3, human CD137 ECD-mIgG2a; experiment: SPR, Fc fusion VH

| EC50 [1] | Kd [2] | EC50 [3] | Kd [4] | EC50 [5] | Kd [6] | Binder |
| --- | --- | --- | --- | --- | --- | --- |
| 0.57 mg/L | 0.36 µM | 0.75 mg/L |  |  |  | A-CD137/CEA (Format A: BGA-4712 VH fused to the C-terminus of the Fc of the anti-CEA antibody) (bispecific antibody, human IgG1, kappa, Symmetric IgG-like molecule, inert Fc; also called A-CEAxCD137; A-CEA/CD137) heavy: QVQLVQSGAEVKKPGASVKVSCKASGYIFTSYYLHWVRQAPGQGLEWIGYINPQTGKTSYAQKFQGRVTMTRDTSTSTVYMELSSLRSEDTAVYYCAREYGNYNYPLDYWGQGTLVTVSSASTKGPSVFPLAPSSKSTSGGTAALGCLVKDYFPEPVTVSWNSGALTSGVHTFPAVLQSSGLYSLSSVVTVPSSSLGTQTYICNVNHKPSNTKVDKKVEPKSCDKTHTCPPCPAPPAAGPSVFLFPPKPKDTLMISRTPEVTCVVVDVSHEDPEVKFNWYVDGVEVHNAKTKPREEQYNSTYRVVSVLTVLHQDWLNGKEYKCKVSNKALAAPIEKTISKAKGQPREPQVYTLPPSREEMTKNQVSLTCLVKGFYPSDIAVEWESNGQPENNYKTTPPVLDSDGSFFLYSKLTVDKSRWQQGNVFSCSVMHEALHNHYTQKSLSLSPGKGGGGSEVQLLESGGGLVQPGGSLRLSCAASGFMLSAEDVGWVRQAPGKGLEWVSAILDFGGSTYYADSVKGRFTISRDNSKNTLYLQMNSLRAEDTAVYYCARVVYHAGGGVTFDYWGQGTLVTVSS light: DIQMTQSPSSLSASVGDRVTITCRASENQYGYLAWYQQKPGKVPKLLIYNYKNLVEGVPSRFSGSGSGTDFTLTISSLQPEDVATYYCQHHLGTPYTFGQGTKVEIKRTVAAPSVFIFPPSDEQLKSGTASVVCLLNNFYPREAKVQWKVDNALQSGNSQESVTEQDSKDSTYSLSSTLTLSKADYEKHKVYACEVTHQGLSSPVTKSFNRGEC |
| 2.28 mg/L | 0.078 µM | 3.78 mg/L |  |  |  | D-CD137/CEA (Format D: BGA-4712 VH fused to the N-terminus of the heavy chain of the anti-CEA antibody) (bispecific antibody, human IgG1, kappa, Symmetric IgG-like molecule, inert Fc; also called D-CEAxCD137) heavy: EVQLLESGGGLVQPGGSLRLSCAASGFMLSAEDVGWVRQAPGKGLEWVSAILDFGGSTYYADSVKGRFTISRDNSKNTLYLQMNSLRAEDTAVYYCARVVYHAGGGVTFDYWGQGTLVTVSSSGGGGSQVQLVQSGAEVKKPGASVKVSCKASGYIFTSYYLHWVRQAPGQGLEWIGYINPQTGKTSYAQKFQGRVTMTRDTSTSTVYMELSSLRSEDTAVYYCAREYGNYNYPLDYWGQGTLVTVSSASTKGPSVFPLAPSSKSTSGGTAALGCLVKDYFPEPVTVSWNSGALTSGVHTFPAVLQSSGLYSLSSVVTVPSSSLGTQTYICNVNHKPSNTKVDKKVEPKSCDKTHTCPPCPAPPAAGPSVFLFPPKPKDTLMISRTPEVTCVVVDVSHEDPEVKFNWYVDGVEVHNAKTKPREEQYNSTYRVVSVLTVLHQDWLNGKEYKCKVSNKALAAPIEKTISKAKGQPREPQVYTLPPSREEMTKNQVSLTCLVKGFYPSDIAVEWESNGQPENNYKTTPPVLDSDGSFFLYSKLTVDKSRWQQGNVFSCSVMHEALHNHYTQKSLSLSPGK light: DIQMTQSPSSLSASVGDRVTITCRASENQYGYLAWYQQKPGKVPKLLIYNYKNLVEGVPSRFSGSGSGTDFTLTISSLQPEDVATYYCQHHLGTPYTFGQGTKVEIKRTVAAPSVFIFPPSDEQLKSGTASVVCLLNNFYPREAKVQWKVDNALQSGNSQESVTEQDSKDSTYSLSSTLTLSKADYEKHKVYACEVTHQGLSSPVTKSFNRGEC |
|  |  |  | 0.169 µM | 2.37 mg/L | 0.169 µM | BGA-4712-M3-mutFc (Fc fusion VH) (Fc fusion) EVQLLESGGGLVQPGGSLRLSCAASGFTLSAEDVGWVRQAPGKGLEWVSAILDFGGSTYYAESVKGRFTISRDNAKNTLYLQMSSLRAEDTAVYYCARVVYHAGGGVTFDYWGQGTLVTVSSGGGGSDKTHTCPPCPAPPAAGPSVFLFPPKPKDTLMISRTPEVTCVVVDVSHEDPEVKFNWYVDGVEVHNAKTKPREEQYNSTYRVVSVLTVLHQDWLNGKEYKCKVSNKALAAPIEKTISKAKGQPREPQVYTLPPSREEMTKNQVSLTCLVKGFYPSDIAVEWESNGQPENNYKTTPPVLDSDGSFFLYSKLTVDKSRWQQGNVFSCSVMHEALHNHYTQKSLSLSPGK |
|  |  |  | 0.2 µM | 5.71 mg/L | 0.2 µM | BGA-7556-mutFc (Fc fusion VH) (Fc fusion) EVQLLESGGGLVQPGGSLRLSCAASGFTLSAEDVGWVRQAPGKGLEWVSAILDFGGSTYYAESVKGRFTISRDNAKNTLYLQMSSLRAEDTAVYYCARVVYHAGGGVTFDYRGQGTQVTVSSGGGGSDKTHTCPPCPAPPAAGPSVFLFPPKPKDTLMISRTPEVTCVVVDVSHEDPEVKFNWYVDGVEVHNAKTKPREEQYNSTYRVVSVLTVLHQDWLNGKEYKCKVSNKALAAPIEKTISKAKGQPREPQVYTLPPSREEMTKNQVSLTCLVKGFYPSDIAVEWESNGQPENNYKTTPPVLDSDGSFFLYSKLTVDKSRWQQGNVFSCSVMHEALHNHYTQKSLSLSPGK |
